Key:
hANGPTL3(17-170)-His [1] = biological target: T1, hANGPTL3(17-170)-His (human, UniProt Q9Y5C1 17-170); assay: SPR Biacore, antigen captured, 37C, pH 7.4, HBS-EP
T1 construct: also called N-terminal coiled-coil domain of hANGPTL3 with a C-terminal hexahistidine tag; Human ANGPTL3 (17-170)-His
T1 sequence: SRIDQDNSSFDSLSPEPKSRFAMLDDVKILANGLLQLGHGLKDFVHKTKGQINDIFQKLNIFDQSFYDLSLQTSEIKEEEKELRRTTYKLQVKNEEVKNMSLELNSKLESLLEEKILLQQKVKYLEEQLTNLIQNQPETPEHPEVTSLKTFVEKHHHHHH
Description: (§1) All kinetic binding experiments were performed at 25° C. or 37° C. on a BIACORE™ T200 label-free molecular interaction instrument (GE Healthcare) using a CM5 sensor chip. Briefly, an antigen capture surface was generated by covalently coupling either an anti-mouse IgG-specific antibody (anti-mFc; GE Healthcare; catalog #BR-1008-38) or an anti-pentahistidine-specific antibody (Qiagen; catalog #34660) to the surface of a CM5 sensor chip using a standard amine coupling method.

mANGPTL3(17-455)-His [2] = biological target: T2, mANGPTL3(17-455)-His (Mus musculus, UniProt Q9R182 17-455); assay: SPR Biacore, antigen captured, 37C, pH 7.4, HBS-EP
T2 construct: Bought protein (R&D Systems); also called full-length mature ANGPTL3 from Mus musculus with a C-terminal decahistidine tag
T2 sequence: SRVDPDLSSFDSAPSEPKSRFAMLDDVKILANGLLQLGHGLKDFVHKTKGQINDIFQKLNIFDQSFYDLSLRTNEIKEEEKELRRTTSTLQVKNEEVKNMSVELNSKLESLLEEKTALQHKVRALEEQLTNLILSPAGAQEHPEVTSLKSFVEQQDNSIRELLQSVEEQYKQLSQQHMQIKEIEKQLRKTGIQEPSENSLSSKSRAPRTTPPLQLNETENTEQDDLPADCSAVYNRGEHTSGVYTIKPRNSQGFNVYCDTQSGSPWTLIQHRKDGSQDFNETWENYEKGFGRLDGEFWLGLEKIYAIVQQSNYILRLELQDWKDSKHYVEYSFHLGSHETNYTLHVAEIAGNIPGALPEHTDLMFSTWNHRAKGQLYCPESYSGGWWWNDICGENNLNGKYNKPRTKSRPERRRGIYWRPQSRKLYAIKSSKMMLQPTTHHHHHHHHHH
Description: as §1

hANGPTL3(17-460)-His [3] = biological target: T3, hANGPTL3(17-460)-His (human, UniProt Q9Y5C1 17-460); assay: SPR Biacore, antigen captured, 37C, pH 7.4, HBS-EP
T3 construct: Bought protein (R&D Systems); also called full-length mature human ANGPTL3 with a C-terminal decahistidine tag; Human ANGPTL3 (17-460)-His
T3 sequence: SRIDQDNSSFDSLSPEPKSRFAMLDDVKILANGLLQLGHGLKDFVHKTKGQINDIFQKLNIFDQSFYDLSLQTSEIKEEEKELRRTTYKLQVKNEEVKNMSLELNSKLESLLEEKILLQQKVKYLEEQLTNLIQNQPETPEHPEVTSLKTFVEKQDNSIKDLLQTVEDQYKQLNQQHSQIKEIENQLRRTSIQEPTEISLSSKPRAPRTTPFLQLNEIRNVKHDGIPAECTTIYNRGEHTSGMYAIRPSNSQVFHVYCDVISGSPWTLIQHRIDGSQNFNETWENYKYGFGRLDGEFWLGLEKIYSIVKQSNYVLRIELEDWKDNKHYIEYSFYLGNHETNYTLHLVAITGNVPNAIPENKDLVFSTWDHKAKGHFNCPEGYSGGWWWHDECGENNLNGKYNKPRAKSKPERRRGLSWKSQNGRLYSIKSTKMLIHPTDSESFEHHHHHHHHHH
Description: as §1

MfANGPTL3(17-170)-mmH = biological target: T4, MfANGPTL3(17-170)-mmH (Macaca fascicularis); assay: SPR Biacore, antigen captured, 25C, pH 5.75, PBSP
T4 construct: also called N-terminal coiled-coil domain of ANGPTL3 from Macaca fascicularis with myc-myc-hexahistidine tag; Monkey ANGPTL3 (17-170)-mmH
T4 chain: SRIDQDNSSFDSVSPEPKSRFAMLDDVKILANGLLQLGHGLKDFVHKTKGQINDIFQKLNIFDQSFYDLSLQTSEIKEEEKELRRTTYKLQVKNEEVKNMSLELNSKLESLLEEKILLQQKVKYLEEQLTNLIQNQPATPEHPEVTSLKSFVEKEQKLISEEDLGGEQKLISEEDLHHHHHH
Description: as §1

hANGPTL3(17-170)-His [4] = biological target: T1, hANGPTL3(17-170)-His; assay: SPR Biacore, antigen captured, 25C, pH 5.75, PBSP
Description: as §1

hANGPTL3(17-460)-His [5] = biological target: T3, hANGPTL3(17-460)-His; assay: SPR Biacore, antigen captured, 25C, pH 5.75, PBSP
Description: as §1

mANGPTL3(17-455)-His [6] = biological target: T2, mANGPTL3(17-455)-His; assay: SPR Biacore, antigen captured, 25C, pH 7.4, HBS-EP
Description: as §1

hANGPTL3(17-460)-His [7] = biological target: T3, hANGPTL3(17-460)-His; assay: SPR Biacore, antigen captured, 25C, pH 7.4, HBS-EP
Description: as §1

Kd (hANGPTL3(17-170)-His [1]): 1.52 nM
koff (hANGPTL3(17-170)-His [1]): 0.00241 s⁻¹
kon (hANGPTL3(17-170)-His [1]): 1.59e+06 M⁻¹ s⁻¹
t1/2 (hANGPTL3(17-170)-His [1]): 4.8 min
Kd (mANGPTL3(17-455)-His [2]): 0.408 nM
koff (mANGPTL3(17-455)-His [2]): 0.000791 s⁻¹
kon (mANGPTL3(17-455)-His [2]): 1.94e+06 M⁻¹ s⁻¹
t1/2 (mANGPTL3(17-455)-His [2]): 14.6 min
Kd (hANGPTL3(17-460)-His [3]): 1.29 nM
koff (hANGPTL3(17-460)-His [3]): 0.000812 s⁻¹
kon (hANGPTL3(17-460)-His [3]): 632000 M⁻¹ s⁻¹
t1/2 (hANGPTL3(17-460)-His [3]): 14.2 min
Kd (MfANGPTL3(17-170)-mmH): 21 nM
koff (MfANGPTL3(17-170)-mmH): 0.00432 s⁻¹
kon (MfANGPTL3(17-170)-mmH): 206000 M⁻¹ s⁻¹
t1/2 (MfANGPTL3(17-170)-mmH): 2.7 min
Kd (hANGPTL3(17-170)-His [4]): 24 nM
koff (hANGPTL3(17-170)-His [4]): 0.00672 s⁻¹
kon (hANGPTL3(17-170)-His [4]): 280000 M⁻¹ s⁻¹
t1/2 (hANGPTL3(17-170)-His [4]): 1.7 min
Kd (hANGPTL3(17-460)-His [5]): 67.5 nM
koff (hANGPTL3(17-460)-His [5]): 0.00494 s⁻¹
kon (hANGPTL3(17-460)-His [5]): 73200 M⁻¹ s⁻¹
t1/2 (hANGPTL3(17-460)-His [5]): 2.3 min
Kd (mANGPTL3(17-455)-His [6]): 0.268 nM
koff (mANGPTL3(17-455)-His [6]): 0.000346 s⁻¹
kon (mANGPTL3(17-455)-His [6]): 1.29e+06 M⁻¹ s⁻¹
t1/2 (mANGPTL3(17-455)-His [6]): 33.4 min
Kd (hANGPTL3(17-460)-His [7]): 0.491 nM
koff (hANGPTL3(17-460)-His [7]): 0.000289 s⁻¹
kon (hANGPTL3(17-460)-His [7]): 588000 M⁻¹ s⁻¹
t1/2 (hANGPTL3(17-460)-His [7]): 40 min
B1: H4H1276S (antibody, IgG4, V domains shown)
VH: EVQLVESGGGVIQPGGSLRLSCAASGFTFDDYAMNWVRQGPGKGLEWVSAISGDGGSTYYADSVKGRFTISRDNSKNSLYLQMNSLRAEDTAFFYCAKDLRNTIFGVVIPDAFDIWGQGTMVTVSS
VL: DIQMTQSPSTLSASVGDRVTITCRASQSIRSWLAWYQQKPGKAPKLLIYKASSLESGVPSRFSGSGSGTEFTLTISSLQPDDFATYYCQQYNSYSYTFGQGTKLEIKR
